This data set is described as follows: self-splicing fitness, log relative to wild type (ln ratio); higher = more splicing; Tetrahymena group I intron in knt gene, E. coli kanamycin selection, DiMSum; sequences stand for … in CUCUCU…GGAGGGAAAAGUUAUCAGGCAUGCACCUGGUAGCUAGUCUUUAAACCAAUAGAUUGCAUCGGUUUAAAAGGCAAGACCGUCAAAUUGCGGGAAAGGGGUCAACAGCCGUUCAGUACCAAGUCUCAGGGGAAACUUUGAGAUGGCCUUGCAAAGGGUAUGGUAAUAAGCUGACGGACAUGGUCCUAACCACGCAGCCAAGUCCUAAGUCAACAGAUCUUCUGUUGAUAUGGAUGCAGUUCACAGACUAAAUGUCGGUCGGGGAAGAUGUAUUCUUCUCAUAAGAUAUAGUCGGACCUCUCCUUAAUGGGAGCUAGCGGAUGAAGUGAUGCAACACUGGAGCCGCUGGGAACUAAUUUGUAUGCGAAAGUAUAUUGAUUAGUUUUGGAGUACUCGUGGUCG
In short, it runs like this:
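Pooled colonies went to amplicon sequencing on an Illumina HiSeq 2500 after six replicate transformations. The plates were LB agar with 100 μg/mL carbenicillin, 50 μM IPTG and 0.2% rhamnose, with or without 25 μg/mL kanamycin, incubated overnight at 37°C or 30°C. The E. coli BL21(DE3) library had all eight P1ex-region intron nucleotides randomised, the intron placed in the knt kanamycin-resistance gene on pET-22b(+). DiMSum fitness is the error-weighted combination of replicate fold changes, kanamycin against none, normalised to wild type.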

± gives the uncertainty stated by the source.

For the sequence UCCGAGCAAUAUUACGCUCG, the “self-splicing fitness (ln)” value runs as follows: (30 °C) -3.71 ± 0.21; (37 °C) -3.08 ± 0.37.

Take UUCAAGCAAUAUUACGCUGU: the “self-splicing fitness (ln)” value reads like this: (30 °C) -2.98 ± 0.17; (37 °C) -1.19 ± 0.14.

For the sequence ACAUAGCAAUAUUACGCUGA, the “self-splicing fitness (ln)” value was -1.47 ± 0.093 (30 °C) and -0.74 ± 0.12 (37 °C).

On to AAGAAGCAAUAUUACGAUAC, for which the “self-splicing fitness (ln)” value runs as follows: (30 °C) -2.94 ± 0.19; (37 °C) -1.31 ± 0.17.

As to GCGAAGCAAUAUUACGGGCA, the “self-splicing fitness (ln)” value runs as follows: (30 °C) -1.96 ± 0.15; (37 °C) -0.529 ± 0.11.

In the case of GAAGAGCAAUAUUACGGUUC, the “self-splicing fitness (ln)” value by setting is: (30 °C) -3.53 ± 0.29; (37 °C) -1.46 ± 0.22.

For the sequence GCAUAGCAAUAUUACGGAGC, the “self-splicing fitness (ln)” value (30 °C) is -3.59 ± 0.25 and the “self-splicing fitness (ln)” value (37 °C) is -2.73 ± 0.23.

Turning to CGGUAGCAAUAUUACGACAG, the “self-splicing fitness (ln)” value was -0.475 ± 0.15 (30 °C) and 0.021 ± 0.16 (37 °C).

For the sequence UUUCAGCAAUAUUACGCAGG, the “self-splicing fitness (ln)” value reads like this: (30 °C) -2.53 ± 0.18; (37 °C) -1.65 ± 0.23.

Turning to AAUAAGCAAUAUUACGAAAC, the “self-splicing fitness (ln)” value is, setting by setting: (30 °C) -3.3 ± 0.39; (37 °C) -2.17 ± 0.49.

For the sequence CCACAGCAAUAUUACGCGAA, the “self-splicing fitness (ln)” value runs as follows: (30 °C) -3.53 ± 0.2; (37 °C) -3.29 ± 0.21.

Take UCUCAGCAAUAUUACGGUGG: the “self-splicing fitness (ln)” value was -2.24 ± 0.14 (30 °C) and -2.31 ± 0.18 (37 °C).

For UGUGAGCAAUAUUACGUGAA, the “self-splicing fitness (ln)” value (37 °C) was -1.69 ± 0.23.

Consider CCUGAGCAAUAUUACGUGGC, for which, under “30 °C”, the “self-splicing fitness (ln)” value is -3.15 ± 0.24.

For GGCCAGCAAUAUUACGGGGU, the “self-splicing fitness (ln)” value (30 °C) is -3.68 ± 0.24 and the “self-splicing fitness (ln)” value (37 °C) was -3.21 ± 0.26.

Regarding CAGGAGCAAUAUUACGAUAU, the “self-splicing fitness (ln)” value reads like this: (30 °C) -1.88 ± 0.17; (37 °C) -2.37 ± 0.35.

In the case of UCGCAGCAAUAUUACGGUCA, the “self-splicing fitness (ln)” value is -0.966 ± 0.1 (30 °C) and 0.119 ± 0.11 (37 °C).

Turning to UCAGAGCAAUAUUACGUACC, the “self-splicing fitness (ln)” value (30 °C) was -3.69 ± 0.25 and the “self-splicing fitness (ln)” value (37 °C) was -1.59 ± 0.37.

As for GACAAGCAAUAUUACGGCAG, the “self-splicing fitness (ln)” value reads like this: (30 °C) -4.14 ± 0.31; (37 °C) -3.08 ± 0.35.

Take AUCCAGCAAUAUUACGCGUU: the “self-splicing fitness (ln)” value by setting is: (30 °C) -1.06 ± 0.087; (37 °C) -0.503 ± 0.1.

AUGCAGCAAUAUUACGCCUC: the “self-splicing fitness (ln)” value runs as follows: (30 °C) -2.55 ± 0.2; (37 °C) -1.35 ± 0.14.

As to AAGCAGCAAUAUUACGAAGG, the “self-splicing fitness (ln)” value reads like this: (30 °C) -2.99 ± 0.16; (37 °C) -3.01 ± 0.26.

As to GCACAGCAAUAUUACGAGAC, the “self-splicing fitness (ln)” value reads like this: (30 °C) -2.51 ± 0.17; (37 °C) -2.06 ± 0.18.

For UGCAAGCAAUAUUACGGGUC, the “self-splicing fitness (ln)” value runs as follows: (30 °C) -3.11 ± 0.24; (37 °C) -2.11 ± 0.21.

Consider UUUAAGCAAUAUUACGGAUC, for which the “self-splicing fitness (ln)” value (30 °C) was -1.33 ± 0.43.

Regarding AGACAGCAAUAUUACGACAC, the “self-splicing fitness (ln)” value runs as follows: (30 °C) -1 ± 0.11; (37 °C) -0.662 ± 0.14.

On to CUUUAGCAAUAUUACGCCUC, for which the “self-splicing fitness (ln)” value (37 °C) is -1.99 ± 0.43.

Take AUCAAGCAAUAUUACGCCCC: the “self-splicing fitness (ln)” value was -1.45 ± 0.3 (30 °C) and 0.787 ± 0.27 (37 °C).

For UAGUAGCAAUAUUACGGGAC, the “self-splicing fitness (ln)” value is -4.2 ± 0.42 (30 °C) and -2.27 ± 0.43 (37 °C).

Consider UUCGAGCAAUAUUACGGGGG, for which the “self-splicing fitness (ln)” value (30 °C) was -2.88 ± 0.3 and the “self-splicing fitness (ln)” value (37 °C) is -2.23 ± 0.42.

Consider UUACAGCAAUAUUACGGAAC, for which the “self-splicing fitness (ln)” value (30 °C) was -2.88 ± 0.26 and the “self-splicing fitness (ln)” value (37 °C) was -1.88 ± 0.42.

Regarding UUGGAGCAAUAUUACGUGUU, the “self-splicing fitness (ln)” value is, setting by setting: (30 °C) -2.58 ± 0.2; (37 °C) -2.79 ± 0.33.

With GACUAGCAAUAUUACGCGUG, the “self-splicing fitness (ln)” value was -1.44 ± 0.061 (30 °C) and -0.609 ± 0.067 (37 °C).

As to AACUAGCAAUAUUACGACAU, the “self-splicing fitness (ln)” value by setting is: (30 °C) -0.187 ± 0.011; (37 °C) 0.0705 ± 0.032.

Consider UCUUAGCAAUAUUACGCAGU, for which the “self-splicing fitness (ln)” value by setting is: (30 °C) -2.76 ± 0.22; (37 °C) -1.05 ± 0.13.

As to UGUAAGCAAUAUUACGGCGG, the “self-splicing fitness (ln)” value (30 °C) was -0.367 ± 0.098 and the “self-splicing fitness (ln)” value (37 °C) is -0.217 ± 0.12.

With AGCAAGCAAUAUUACGCUUU, the “self-splicing fitness (ln)” value (30 °C) was -2.23 ± 0.17 and the “self-splicing fitness (ln)” value (37 °C) is -1.55 ± 0.12.

For the sequence GCGUAGCAAUAUUACGGGGG, the “self-splicing fitness (ln)” value is, setting by setting: (30 °C) -3.87 ± 0.21; (37 °C) -1.78 ± 0.17.

In the case of UGCGAGCAAUAUUACGUAAG, the “self-splicing fitness (ln)” value was -3.72 ± 0.26 (30 °C) and -2.34 ± 0.28 (37 °C).

(Values after the supplement of paper PMC7877785.)
